Measurements taken from PMC3325965, “Structural Basis of the Chromodomain of Cbx3 Bound to Methylated Peptides from Histone H1 and G9a” (PLoS ONE, 2012).

Molecular target: Histone H3K9me3 peptide (Homo sapiens) (UniProt P68431)
Assay: not given
Conditions: cited from earlier work

Chain of Cbx3 chromodomain (Q13185 30-88): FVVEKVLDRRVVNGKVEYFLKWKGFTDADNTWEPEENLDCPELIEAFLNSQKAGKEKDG

Substance	Kd
Cbx3 chromodomain (from UniProt Q13185)	15 µM

Molecular target: human Cbx3 chromodomain (residues 29–86) (human) (UniProt Q13185)
Assay: ITC; peptide solution (1–2 mM) injected into the cell with Cbx3 chromodomain (40–100 mM [sic]) in 20 mM Tris–HCl, pH 7.5, 150 mM NaCl; one-site binding model
Conditions: not given

Chain of human Cbx3 chromodomain (residues 29–86) (human) (Q13185 29-86): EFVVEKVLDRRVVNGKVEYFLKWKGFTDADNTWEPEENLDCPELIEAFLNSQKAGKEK

Substance	Kd
G9a(179–190) peptide, K185 monomethylated	28 µM
G9a(179–190) peptide, K185 dimethylated	9 µM
G9a(179–190) peptide, K185 trimethylated	14 µM

Next, values leading:

Kd	Substance
21 µM	histone H1.4(18–29) peptide, K26 trimethylated
52 µM	histone H1.4(18–29) peptide, K26 dimethylated
